From patent publication US20100093076A1, “SOLUBLE IL-27 RECEPTOR” (priority 2006, published 2010)
pKd: −log10 of the molar value.

Experiments:
[1] = target: T1, human ligand (single-chain IL27: EBI3 linked to IL-27 p28) (Homo sapiens, UniProt Q14213+Q8NEV9); test: Surface plasmon resonance (BIACORE 3000) kinetic rate and affinity constants; type: binding; conditions: SPR
T1 construct: purchased R&D Systems
T1 sequence (Q14213+Q8NEV9 with tags, fused parts or gaps): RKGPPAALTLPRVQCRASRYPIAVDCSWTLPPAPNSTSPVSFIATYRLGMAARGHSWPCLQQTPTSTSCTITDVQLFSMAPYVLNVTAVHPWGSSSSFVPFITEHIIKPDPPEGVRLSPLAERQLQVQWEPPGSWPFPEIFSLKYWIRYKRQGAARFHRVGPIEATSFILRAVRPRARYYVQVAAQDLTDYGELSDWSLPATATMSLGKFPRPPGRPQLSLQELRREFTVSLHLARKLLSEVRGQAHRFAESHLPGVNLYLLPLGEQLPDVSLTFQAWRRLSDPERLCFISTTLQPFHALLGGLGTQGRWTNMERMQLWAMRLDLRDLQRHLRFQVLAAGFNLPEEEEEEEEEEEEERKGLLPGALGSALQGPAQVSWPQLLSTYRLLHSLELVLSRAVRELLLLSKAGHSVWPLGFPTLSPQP
Protocol: (§1) Kinetic rate and affinity constant values for the mouse (IL27RAm(mFc1), Example 1) and human (IL27RA-Fc5, Example 2) soluble receptors were obtained by surface plasmon resonance (SPR) using an automated instrument (BIACORE 3000; Biacore International AB, Uppsala, Sweden). The mouse soluble receptor was tested against mouse ligand (lot A1418F), and the human soluble receptor was tested against both mouse (A1426F) and human (A1534F) ligands. For determination of the kinetic rate constants for the receptor-ligand interactions, the gp130 molecule was not included as part of the receptor complex.
(§2) The IL27 ligands used in this study were single-chain molecules comprising EBI3 connected by its C-terminus to the N-terminus of IL-27 p28 via a polypeptide linker. (R&D Systems) Each of the ligands included an amino-terminal peptide tag.
(§3) For the mouse IL27RA study, the soluble receptor was captured onto the chip surface by an isotype-specific anti-mouse Fc antibody (obtained from Jackson ImmunoResearch Laboratories, Inc., West Grove, Pa.) covalently immobilized to the chip (BIACORE CM5 chip) using the standard amine coupling protocol specified by the instrument manufacturer. For the human IL27RA studies, the soluble receptor was directly and covalently immobilized to the chip via the amine coupling protocol. In all studies, ligand was injected over the active (receptor-bound) surface at varying concentrations to obtain a series of binding curves.
(§4) Experimental conditions were optimized for determination of kinetic rate constant values. The molecular densities of the soluble receptor protein loaded onto the chip surface were targeted to obtain maximum IL27 binding levels (Rmax) of ≦20 RU. The analyte (ligand) was injected over the receptor surface at a flow rate of […] at a concentration range of approximately 0.05 to 10 nM, allowing for an association phase of 3 minutes and a dissociation phase of 10 minutes. The mouse soluble receptor surface was regenerated with two 30-second injections at 50 μL/minute of glycine, pH 2.0. The human soluble receptor surface was similarly regenerated with a single 30-second injection.
(§5) All data were assessed using software provided with the instrument (BIACORE Evaluation software v. 3.2). The binding curves were globally fitted to a 1:1 binding model corrected for mass transport limitation resulting from the fast on-rate values (ka) obtained. Statistical analysis of the fits of the experimental binding curves versus theoretical curves gave standard error values for ka and kd of less than 2%, and chi^2 values of less than 2% of Rmax for all interactions tested, providing reasonable confidence in the kinetic rate constant values obtained.

[2] = target: T2, mouse ligand (single-chain IL27: EBI3 linked to IL-27 p28) (Mus musculus, UniProt O35228+Q8K3I6); test: as above; type: binding; conditions: SPR
T2 construct: purchased R&D Systems
T2 sequence (O35228+Q8K3I6 with tags, fused parts or gaps): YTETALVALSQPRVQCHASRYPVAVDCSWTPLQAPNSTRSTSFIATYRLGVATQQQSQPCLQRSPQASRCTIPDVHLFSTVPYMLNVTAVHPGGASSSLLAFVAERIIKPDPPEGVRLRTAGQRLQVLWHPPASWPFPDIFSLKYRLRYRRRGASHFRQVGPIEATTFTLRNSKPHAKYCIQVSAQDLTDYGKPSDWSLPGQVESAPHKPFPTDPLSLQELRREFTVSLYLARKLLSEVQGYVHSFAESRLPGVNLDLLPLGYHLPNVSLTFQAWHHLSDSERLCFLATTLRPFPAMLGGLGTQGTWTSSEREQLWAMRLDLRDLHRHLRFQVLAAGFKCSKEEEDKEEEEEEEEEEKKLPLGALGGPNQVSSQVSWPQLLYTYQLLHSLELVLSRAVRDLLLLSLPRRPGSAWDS
Protocol: as §1, §2, §3, §4, §5

human IL-27RA-Fc5: Extracellular domain of human IL27RA (amino acids 1 to 512 of SEQ ID NO:3) fused to Fc5, effector minus human gamma1 Fc; SEQ ID NO:16
ka ([1]; 1:1 binding model): 1e+07 M⁻¹ s⁻¹ | kd ([1]; 1:1 binding model): 0.0019 s⁻¹ | pKd ([1]; Kd=kd/ka): 9.72 | ka ([2]; 1:1 binding model): 8.1e+06 M⁻¹ s⁻¹ | kd ([2]; 1:1 binding model): 0.0018 s⁻¹ | pKd ([2]; Kd=kd/ka): 9.66
